{"source": "patent US20150010589A1", "key": {"[1]": {"target": "soluble collagen type I (pepsin-digested, non-fibrillar, triple helical; BD Biosciences) (human) (UniProt P02452)", "sequence (P02452 179-1192 limits assumed, chain 1 of 2)": "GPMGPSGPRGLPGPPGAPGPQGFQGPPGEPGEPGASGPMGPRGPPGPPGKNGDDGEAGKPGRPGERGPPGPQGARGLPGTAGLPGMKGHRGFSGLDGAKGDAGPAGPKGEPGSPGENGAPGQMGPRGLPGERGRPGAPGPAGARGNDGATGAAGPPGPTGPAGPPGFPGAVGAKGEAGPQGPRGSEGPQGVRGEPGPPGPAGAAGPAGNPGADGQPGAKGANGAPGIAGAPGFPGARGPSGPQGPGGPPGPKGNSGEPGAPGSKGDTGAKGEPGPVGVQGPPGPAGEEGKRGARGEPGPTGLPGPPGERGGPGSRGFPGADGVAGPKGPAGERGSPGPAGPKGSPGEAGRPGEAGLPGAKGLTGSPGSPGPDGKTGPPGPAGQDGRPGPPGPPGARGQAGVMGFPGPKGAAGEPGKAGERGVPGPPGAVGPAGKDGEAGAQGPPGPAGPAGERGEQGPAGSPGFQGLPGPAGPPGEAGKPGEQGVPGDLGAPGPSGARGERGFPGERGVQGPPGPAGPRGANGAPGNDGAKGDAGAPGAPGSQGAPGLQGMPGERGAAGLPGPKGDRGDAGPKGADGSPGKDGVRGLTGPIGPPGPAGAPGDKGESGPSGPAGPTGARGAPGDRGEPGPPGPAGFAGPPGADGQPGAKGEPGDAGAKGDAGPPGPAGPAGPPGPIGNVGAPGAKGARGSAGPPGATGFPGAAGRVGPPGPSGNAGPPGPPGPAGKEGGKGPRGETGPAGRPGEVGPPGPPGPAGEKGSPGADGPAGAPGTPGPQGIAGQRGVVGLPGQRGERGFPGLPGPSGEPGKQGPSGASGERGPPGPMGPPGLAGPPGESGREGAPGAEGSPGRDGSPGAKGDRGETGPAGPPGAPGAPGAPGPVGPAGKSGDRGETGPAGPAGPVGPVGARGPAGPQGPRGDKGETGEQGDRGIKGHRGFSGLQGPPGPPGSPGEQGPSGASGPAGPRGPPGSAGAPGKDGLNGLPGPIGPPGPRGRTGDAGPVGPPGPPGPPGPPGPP", "sequence (P08123 91-1104 limits assumed, chain 2 of 2, further chain)": "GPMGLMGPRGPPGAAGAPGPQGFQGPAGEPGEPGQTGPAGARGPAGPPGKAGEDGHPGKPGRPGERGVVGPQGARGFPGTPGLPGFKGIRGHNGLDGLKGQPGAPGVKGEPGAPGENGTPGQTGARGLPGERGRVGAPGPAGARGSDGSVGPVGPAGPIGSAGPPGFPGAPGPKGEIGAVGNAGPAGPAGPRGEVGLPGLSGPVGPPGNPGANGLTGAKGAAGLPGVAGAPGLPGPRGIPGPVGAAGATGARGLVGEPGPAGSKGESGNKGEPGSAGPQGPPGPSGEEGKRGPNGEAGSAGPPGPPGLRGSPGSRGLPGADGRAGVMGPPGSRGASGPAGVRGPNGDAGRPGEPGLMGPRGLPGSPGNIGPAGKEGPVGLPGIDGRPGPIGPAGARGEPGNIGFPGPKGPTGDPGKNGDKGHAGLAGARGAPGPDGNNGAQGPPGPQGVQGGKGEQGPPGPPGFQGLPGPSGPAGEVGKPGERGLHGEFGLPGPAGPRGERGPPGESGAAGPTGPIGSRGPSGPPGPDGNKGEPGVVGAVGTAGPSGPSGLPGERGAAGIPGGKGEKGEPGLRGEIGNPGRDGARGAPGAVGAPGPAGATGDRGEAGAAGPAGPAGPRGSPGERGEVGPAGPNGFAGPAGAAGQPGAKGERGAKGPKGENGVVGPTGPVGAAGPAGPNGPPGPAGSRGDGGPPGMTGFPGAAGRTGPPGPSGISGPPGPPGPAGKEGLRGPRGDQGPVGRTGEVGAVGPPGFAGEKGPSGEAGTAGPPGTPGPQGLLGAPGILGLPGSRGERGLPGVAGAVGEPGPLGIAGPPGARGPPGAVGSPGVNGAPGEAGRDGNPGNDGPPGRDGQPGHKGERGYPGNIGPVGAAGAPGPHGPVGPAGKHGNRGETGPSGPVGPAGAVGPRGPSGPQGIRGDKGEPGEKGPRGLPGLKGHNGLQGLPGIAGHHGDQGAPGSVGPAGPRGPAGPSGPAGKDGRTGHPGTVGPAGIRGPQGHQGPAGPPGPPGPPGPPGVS", "experiment": "SPR, saliva injected over immobilized collagen type I, 120 sec at 20 µl/min"}, "[2]": {"target": "soluble collagen type III (pepsin-digested, non-fibrillar; BD Biosciences) (human) (UniProt P02461)", "sequence (P02461 168-1196 limits assumed)": "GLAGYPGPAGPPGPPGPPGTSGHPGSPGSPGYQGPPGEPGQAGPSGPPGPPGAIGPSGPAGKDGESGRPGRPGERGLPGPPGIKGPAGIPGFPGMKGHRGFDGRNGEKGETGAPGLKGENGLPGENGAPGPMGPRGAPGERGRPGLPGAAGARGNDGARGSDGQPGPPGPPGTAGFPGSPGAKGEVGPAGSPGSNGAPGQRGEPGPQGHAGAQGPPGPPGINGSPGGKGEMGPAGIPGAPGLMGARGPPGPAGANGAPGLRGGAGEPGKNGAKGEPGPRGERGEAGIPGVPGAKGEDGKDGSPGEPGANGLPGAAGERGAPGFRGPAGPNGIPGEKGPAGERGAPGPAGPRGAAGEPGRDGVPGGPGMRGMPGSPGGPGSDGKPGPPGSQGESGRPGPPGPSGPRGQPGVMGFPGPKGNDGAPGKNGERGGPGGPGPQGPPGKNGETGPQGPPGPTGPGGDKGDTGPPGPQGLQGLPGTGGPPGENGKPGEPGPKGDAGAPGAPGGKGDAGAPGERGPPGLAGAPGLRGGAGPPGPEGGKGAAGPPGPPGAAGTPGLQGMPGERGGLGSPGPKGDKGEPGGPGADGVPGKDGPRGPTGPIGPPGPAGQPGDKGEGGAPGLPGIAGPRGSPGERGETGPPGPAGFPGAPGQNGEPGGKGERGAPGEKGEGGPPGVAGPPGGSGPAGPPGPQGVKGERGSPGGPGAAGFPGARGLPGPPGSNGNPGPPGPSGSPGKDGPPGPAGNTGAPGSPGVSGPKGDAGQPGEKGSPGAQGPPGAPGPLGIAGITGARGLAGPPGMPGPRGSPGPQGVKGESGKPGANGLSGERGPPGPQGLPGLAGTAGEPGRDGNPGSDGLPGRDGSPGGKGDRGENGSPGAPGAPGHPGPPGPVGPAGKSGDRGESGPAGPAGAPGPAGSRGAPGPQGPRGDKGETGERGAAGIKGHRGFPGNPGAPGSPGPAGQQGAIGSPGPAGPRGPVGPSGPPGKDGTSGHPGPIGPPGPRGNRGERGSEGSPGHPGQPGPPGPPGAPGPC", "experiment": "SPR, saliva injected over immobilized collagen type III, 120 sec at 20 µl/min"}, "[3]": {"target": "collagen-related peptide (CRP) GCO-(GPO)10-GCOG-NH2, cross-linked", "experiment": "SPR, Aegyptin over immobilized cross-linked (GPO)10 peptide, two-state model"}, "[4]": {"target": "collagen-related peptide (CRP) GCO-(GPO)10-GCOG-NH2, cross-linked", "experiment": "SPR, Aegyptin over immobilized cross-linked (GPO)10 peptide, two-state model; Ka1"}, "[5]": {"target": "collagen-related peptide (CRP) GCO-(GPO)10-GCOG-NH2, cross-linked", "experiment": "SPR, Aegyptin over immobilized cross-linked (GPO)10 peptide, two-state model; Kd1"}, "[6]": {"target": "collagen-related peptide (CRP) GCO-(GPO)10-GCOG-NH2, cross-linked", "experiment": "SPR, Aegyptin over immobilized cross-linked (GPO)10, two-state binding model (the table prints 5.101 µM)"}, "[7]": {"target": "horse tendon insoluble fibrillar Horm collagen (Chrono-Log), collagen I (95%) and III (5%) (horse)", "experiment": "cell-based or functional assay"}}}
{"substance": "Ae. aegypti saliva (collected by oil-induced salivation)", "values": [{"measurement": "Response (RU)", "setting": "[1]", "result": 556, "unit": "RU"}, {"measurement": "Response (RU)", "setting": "[2]", "result": 348, "unit": "RU"}]}
{"substance": "recombinant Aegyptin (mature protein with C-terminal 6xHis tag, expressed in 293-F cells) (from UniProt O01949 20-273)", "values": [{"measurement": "Kd", "setting": "[3]", "result": 5.1, "unit": "µM"}, {"measurement": "Kd2", "setting": "[3]", "result": 0.0289, "unit": "s⁻¹"}, {"measurement": "kon", "setting": "[4]", "result": 206000, "unit": "M⁻¹ s⁻¹"}, {"measurement": "koff", "setting": "[5]", "result": 1.19, "unit": "s⁻¹"}, {"measurement": "Kd", "setting": "[6]", "result": 5.01, "unit": "µM"}]}
{"substance": "Aegyptin C-terminus-2 (137 aa), truncated form without GEEDA repeats (from UniProt O01949 137-273)", "values": [{"measurement": "collagen-induced platelet aggregation", "setting": "[7]", "result": 3, "unit": "µM"}]}
